Measurements taken from FireProtDB (doi:10.1016/j.str.2006.07.007).

B1: Azurin, P00282 (parent)
chain: MLRKLAAVSLLSLLSAPLLAAECSVDIQGNDQMQFNTNAITVDKSCKQFTVNLSHPGNLPKNVMGHNWVLSTAADMQGVVTDGMASGLDKDYLKPDDSRVIAHTKLIGSGEKDSVTFDVSKLKEGEQYMFFCTFPGHSALMKGTLTLK

Variants of: B1
Conditions: Pseudomonas aeruginosa (strain ATCC 15692 / DSM 22644 / CIP 104116 / JCM 14847 / LMG 12228 / 1C / PRS 101 / PAO1); pH 7; 25 °C; GdnHCl; Fluorescence; Phosphate 100 mM; reversible: Yes; structure 5AZU; whole UniProt chain shown

In the case of MLRKLAAVSLLSLLSAPLLAAECSADIQGNDQMQFNTNAITVDKSCKQFTVNLSHPGNLPKNVMGHNWVLSTAADMQGVVTDGMASGLDKDYLKPDDSRVIAHTKLIGSGEKDSVTFDVSKLKEGEQYMFFCTFPGHSALMKGTLTLK [V25A], the “ddG of mutation (higher = less stable)” value is reported as 0 kcal/mol and the unfolding free energy is reported as 5.98 kcal/mol.

In the case of MLRKLAAVSLLSLLSAPLLAAECSVDAQGNDQMQFNTNAITVDKSCKQFTVNLSHPGNLPKNVMGHNWVLSTAADMQGVVTDGMASGLDKDYLKPDDSRVIAHTKLIGSGEKDSVTFDVSKLKEGEQYMFFCTFPGHSALMKGTLTLK [I27A], the “ddG of mutation (higher = less stable)” value is reported as 3.11 kcal/mol and the unfolding free energy is reported as 2.87 kcal/mol.

In the case of MLRKLAAVSLLSLLSAPLLAAECSVDIQGNDQMQFNTNAITVDKSCKQFTVNLSHPGNLPKNVMGHNWVLSTAADMQGVGTDGMASGLDKDYLKPDDSRVIAHTKLIGSGEKDSVTFDVSKLKEGEQYMFFCTFPGHSALMKGTLTLK [V80G], the “ddG of mutation (higher = less stable)” value is reported as 3.11 kcal/mol and the unfolding free energy is reported as 2.87 kcal/mol.

In the case of MLRKLAAVSLLSLLSAPLLAAECSVDIQGNDQMQFNTNAITVDKSCKQFTVNLSHPGNLPKNVMGHNWVLSTAADMQGVVTDGMASGLDKDYLKPDDSRVIGHTKLIGSGEKDSVTFDVSKLKEGEQYMFFCTFPGHSALMKGTLTLK [A102G], the “ddG of mutation (higher = less stable)” value is reported as 3.11 kcal/mol and the unfolding free energy is reported as 2.87 kcal/mol.

In the case of MLRKLAAVSLLSLLSAPLLAAECSVDIQGNDQMQFNTNAITVDKSCKQFTVNLSHPGNLPKNVMGHNWVLSTAADMQGVVTDGMASGLDKDYLKPDDSRVIAHTKLIGSGEKDSVTFDVSKLKEGEQYMFFCTFPGHSALMKGTATLK [L145A], the “ddG of mutation (higher = less stable)” value is reported as 0.72 kcal/mol and the unfolding free energy is reported as 5.26 kcal/mol.
